T1: human xylosyltransferase 1 (XT1), residues 232-959 (human, UniProt Q86Y38 232-959, N-linked glycosylation at N777)
T1 construct: human xylosyltransferase 1 (XT1), residues 232-959, amplified from a Dharmacon cDNA clone; The vector is a modified pCEP-Pu (pCEP-Pu-N-His-TEV, Pulido et al., 2017); also called peptide O-xylosyltransferase; XYLT1; source: FreeStyle 293-F (HEK293-F) cells, transfected, secreted; purified (HisTrap Excel, HiTrap Heparin, Superdex 200); not shown: His-tag (TEV protease-cleavable), N-terminal, kept
T1 sequence (looked up): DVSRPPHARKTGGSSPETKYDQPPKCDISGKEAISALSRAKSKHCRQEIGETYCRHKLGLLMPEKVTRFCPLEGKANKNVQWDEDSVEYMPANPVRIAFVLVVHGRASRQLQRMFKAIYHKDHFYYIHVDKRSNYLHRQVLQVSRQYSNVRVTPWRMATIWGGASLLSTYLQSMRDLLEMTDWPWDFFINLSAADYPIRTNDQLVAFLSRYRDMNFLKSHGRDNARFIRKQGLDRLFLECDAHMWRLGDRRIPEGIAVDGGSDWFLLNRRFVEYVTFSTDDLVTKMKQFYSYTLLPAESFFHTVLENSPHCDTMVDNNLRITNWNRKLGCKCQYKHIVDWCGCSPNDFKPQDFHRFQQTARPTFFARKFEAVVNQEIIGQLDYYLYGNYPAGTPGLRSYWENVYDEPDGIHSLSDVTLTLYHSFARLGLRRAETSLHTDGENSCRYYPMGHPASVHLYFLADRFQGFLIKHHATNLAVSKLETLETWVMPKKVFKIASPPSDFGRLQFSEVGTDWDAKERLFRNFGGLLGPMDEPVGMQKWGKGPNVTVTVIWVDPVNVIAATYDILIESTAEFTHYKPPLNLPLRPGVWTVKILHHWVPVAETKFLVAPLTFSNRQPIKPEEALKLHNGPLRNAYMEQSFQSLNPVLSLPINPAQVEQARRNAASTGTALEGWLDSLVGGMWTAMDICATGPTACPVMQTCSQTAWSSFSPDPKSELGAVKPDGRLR

B1: Peptide 1 (bikunin-derived acceptor peptide, wild-type sequence) (peptide)
peptide: QEEEGSGGGQGG
notes: bikunin (part of the AMBP precursor) around the acceptor serine S215; position 0 is the acceptor serine; also called active peptide 1; bikunin-derived peptide 1; source: synthetic peptide (Genscript)
B2: Peptide 2 (inactive bikunin-derived peptide, acceptor serine replaced by alanine) (peptide)
peptide: QEEEGAGGGQGG
notes: bikunin (part of the AMBP precursor) around the acceptor site S215, with the acceptor serine changed to alanine; source: synthetic peptide (Genscript)
B3: Peptide 8 (syndecan 1-derived acceptor peptide) (peptide)
peptide: PAAEGSGEQDFT
notes: syndecan 1 around the acceptor serine S206; position 0 is the acceptor serine; source: synthetic peptide (Genscript)

Biological target: T1, human xylosyltransferase 1 (XT1), …
Experiment: crystal structure; XT1 crystals (hanging drop, Morpheus condition, pH 7.5) soaked with peptide (0.5 or 0.7 mM); for peptide 2 together with UDP-xylose (3.5 mM), giving a ternary complex
Details: both partners purified

binding result	Binder
binds	B1
binds	B2
binds	B3

— PMC5992326, “Structural Basis for the Initiation of Glycosaminoglycan Biosynthesis by Human Xylosyltransferase 1” (Structure(London, England:1993), 2018)
